The target in assay [1] is T1, human LAG-3 on activated Hu CD4+ T cells.
T1 construct: differs from m5, which is LAG-3 transduced into 3A9 cells; also called native human LAG-3
T1 chain: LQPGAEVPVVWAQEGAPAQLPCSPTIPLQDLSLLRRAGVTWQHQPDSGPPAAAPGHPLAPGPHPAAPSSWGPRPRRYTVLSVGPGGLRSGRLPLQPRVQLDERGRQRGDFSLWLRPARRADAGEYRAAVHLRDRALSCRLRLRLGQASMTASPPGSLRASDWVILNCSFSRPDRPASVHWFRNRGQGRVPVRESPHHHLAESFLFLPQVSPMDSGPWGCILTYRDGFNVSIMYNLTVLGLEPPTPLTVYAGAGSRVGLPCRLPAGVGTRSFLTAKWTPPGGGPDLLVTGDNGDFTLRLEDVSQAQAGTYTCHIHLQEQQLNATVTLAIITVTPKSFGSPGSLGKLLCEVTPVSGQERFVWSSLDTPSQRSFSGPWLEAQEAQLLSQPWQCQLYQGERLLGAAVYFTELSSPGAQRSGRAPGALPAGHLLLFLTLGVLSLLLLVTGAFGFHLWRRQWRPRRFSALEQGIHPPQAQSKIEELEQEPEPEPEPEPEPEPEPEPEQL
Put plainly: flow cytometry on anti-CD3/anti-CD28-activated human CD4+ T cells (native LAG-3), PE anti-human Fc detection, FL2 GMFI. Here is the method: (§1) To test the ability of the antibody variants to bind to native human LAG-3 on the surface of activated human T cells, normal healthy donor peripheral blood mononuclear cells were stimulated in 15 cm tissue culture plates at a density of 2×10e6 cells/mL, with a combination of anti-CD3 (eBioscience, Cat #16-0037-85) and anti-CD28 (BD Bioscience, Cat #555725) antibodies present in solution at 5 μg/mL and 3 μg/mL, respectively. Following three days of stimulation cells were harvested, washed 1× with 1×PFAE buffer (1×PBS+2% FBS, 0.02% sodium azide, 2 mM Na EDTA), and resuspended in 1×PFAE buffer for staining.
(§2) For the binding reaction, 100 μl of this diluted antibody mixture was added to 2×10⁵ cells and the mixture was incubated on at 4° C. for 30 minutes. The cells were then washed two times with 1×PFAE buffer. A 1:200 dilution of PE-labeled goat anti-human Fcγ-specific antibody (Jackson ImmunoResearch, Cat. #109-116-170) was added and the mixture was incubated for 30 minutes at 4° C., followed by washing twice with cold 1×PFAE buffer. After the final wash, 150 μl of cold 1×PFAE was added to each solution and analysis of antibody binding was carried out by flow cytometry using a FACSCanto flow cytometer (BD Bioscience).
(In flow cytometry, cells or beads pass a laser one at a time.)

The target of assay [2] is T2, soluble human LAG-3/Fc antigen (human, UniProt P18627 23-450).
T2 construct: also called huLAG-3-Fc; not shown: Fc part of the fusion
T2 sequence: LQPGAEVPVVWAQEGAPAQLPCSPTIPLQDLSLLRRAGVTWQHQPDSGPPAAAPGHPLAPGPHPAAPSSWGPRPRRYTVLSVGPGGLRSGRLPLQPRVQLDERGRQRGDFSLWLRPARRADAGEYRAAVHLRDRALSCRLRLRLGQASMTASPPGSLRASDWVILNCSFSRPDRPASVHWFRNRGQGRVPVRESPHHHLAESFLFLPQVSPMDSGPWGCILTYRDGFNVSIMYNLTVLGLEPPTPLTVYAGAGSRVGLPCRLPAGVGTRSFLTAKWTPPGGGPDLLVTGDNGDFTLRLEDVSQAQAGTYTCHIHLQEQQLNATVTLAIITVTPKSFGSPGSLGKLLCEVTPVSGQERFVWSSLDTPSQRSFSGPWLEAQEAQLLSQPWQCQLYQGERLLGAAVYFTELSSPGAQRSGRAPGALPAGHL
Description: BIACORE (surface plasmon resonance) with soluble human LAG-3/Fc antigen. For orientation: Surface plasmon resonance follows binding to a sensor surface in real time, without labels.

The target of assay [3] is T2, soluble human LAG-3/Fc antigen. Description: Biacore (SPR); antibody kept in PBS.
Assay [4] shares this target. Put plainly: Biacore (SPR); antibody after accelerated stress at pH 8 (5 days, 40 C).
Assay [5] concerns the target T1, human LAG-3 on activated Hu CD4+ T cells. Put plainly: flow cytometry on activated human CD4+ T cells (donor WB1907), FL2 GMFI; antibody after 5 days at 40 °C in pH 8.0 ammonium bicarbonate. The protocol:
as §1, §2

Assay [6] has the same target. Put plainly: flow cytometry on activated human CD4+ T cells (donor WB1907), FL2 GMFI; forced stability study, sample not marked pH 8. The protocol:
as §1, §2

Results on four molecules are retold here after patent US20170137514A1 (Bristol-Myers Squibb, published 2017).

Positions count from the first letter of the chain named. Numbers in names are those of the source.

B1: LAG3.6-G4P (antibody, V domains shown)
VH: QVQLQQWGAGLLKPSETLSLTCAVYGGSFSDYYWNWIRQPPGKGLEWIGEIIHSGSTNSNPSLKSRVTLSLDTSKNQFSLKLRSVTAADTAVYYCAFGYSDYEYNWFDPWGQGTLVTVSS
VL: EIVLTQSPATLSLSPGERATLSCRASQSISSYLAWYQQKPGQAPRLLIYDASNRATGIPARFSGSGSGTDFTLTISSLEPEDFAVYYCQQRSNWPLTFGQGTNLEIKR
notes: also called var2; copies: 2 + 2
Broadly, the EC50 is the concentration at which the effect is half-maximal. As usually defined, the Kd is the free concentration of one partner at which half of the binding sites on the other are occupied at equilibrium, for simple one-to-one binding. High values mean weaker binding, low ones tighter binding. By koff is commonly meant the rate constant with which the complex falls apart. A lower koff goes with slow dissociation. A word on the kon: it is the second-order rate constant of association. Higher therefore signals faster complex formation. As to B1, the EC50 in assay [1] is 0.21 nM. In assay [2], this molecule displayed a Kd of 0.66 nM, a koff of 0.000777 s⁻¹ and a kon of 1.18e+06 M⁻¹ s⁻¹.

B2: LAG3.8 antibody variant of LAG3.1 (25F7) (antibody, V domains shown)
VH: B1 VH with I52N, S54I, S56N
VL: B1 VL
notes: It was made by site-directed mutagenesis of the LAG3.1 VH
In assay [3], B2 gave a Kd of 0.25 nM, a koff of 0.000368 s⁻¹ and a kon of 1.47e+06 M⁻¹ s⁻¹. In assay [4], the dissociation constant Kd turned out to be 0.25 nM, the off-rate constant (koff) came to 0.000402 s⁻¹ and the on-rate constant (kon) was 1.62e+06 M⁻¹ s⁻¹. Also, in assay [5], the EC50 was 0.21 nM. Moreover, the EC50 in assay [6] turned out to be 0.24 nM.

B3: antibody 25F7 (LAG3.1), anti-human LAG-3 human monoclonal antibody (antibody, human IgG4 S228P, kappa, V domains shown)
VH: B1 VH with I52N, S54N, S56N
VL: B1 VL
notes: The heavy chain is human IgG4 with S228P; also called antibody LAG3.1
As to B3, the EC50 was 0.13 nM in assay [1] and 0.2 nM in assay [5]. Besides, the Kd is 0.21 nM in assay [3], 0.2 nM in assay [4] and 0.27 nM in assay [2].

B4: LAG3.7-G4P (antibody, V domains shown)
VH: B1 VH with I52N, S54G, S56G
VL: B1 VL
notes: also called var3; copies: 2 + 2
The EC50 (read off the curve) is the concentration at which the effect is half-maximal. As to B4, the concentration giving a half-maximal response (EC50 (read off the curve)) in assay [1] was around 0.3 nM. For the same molecule, the kon in assay [2] worked out at 1.04e+06 M⁻¹ s⁻¹.
